{
  "source": "paper PMC9584953",
  "assay_in_all_cases": "EMSA",
  "conditions_in_all_cases": "EMSA: 50 mM Tris-HCl pH 7.5, 50 mM KCl, 5 mM CaCl2, 5% glycerol, 0.0025% NP-40, 0.8 ug poly(dI-dC), room temperature 30 min",
  "key": {"[1]": {"system": "T1, OmpR Y230D Y230D (Salmonella (strain not given in material)), ORF:d8521a76", "T1 sequence": "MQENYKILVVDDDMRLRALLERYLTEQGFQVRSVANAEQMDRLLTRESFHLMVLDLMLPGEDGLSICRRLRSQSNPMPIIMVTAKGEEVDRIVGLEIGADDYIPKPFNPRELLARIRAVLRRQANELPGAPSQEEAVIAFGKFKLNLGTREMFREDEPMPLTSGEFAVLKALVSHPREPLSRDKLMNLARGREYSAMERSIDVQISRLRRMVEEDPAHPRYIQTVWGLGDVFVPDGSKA"}, "[2]": {"system": "T2, OmpR I138D I138D (Salmonella (strain not given in material)), ORF:d8521a76", "T2 sequence": "T1 sequence with I138D, D230Y"}, "[3]": {"system": "T3, OmpR A136D A136D (Salmonella (strain not given in material)), ORF:d8521a76", "T3 sequence": "T1 sequence with A136D, D230Y"}, "[4]": {"system": "T4, OmpR R182D R182D (Salmonella (strain not given in material)), ORF:d8521a76", "T4 sequence": "T1 sequence with R182D, D230Y"}, "[5]": {"system": "T5, OmpR D55A D55A (Salmonella (strain not given in material)), ORF:d8521a76", "T5 sequence": "T1 sequence with D55A, D230Y"}},
  "note": "Numbering of substitutions follows the chain as printed.",
  "data": [
    {"sequence": "CATCTTTCCATTCAAACTAACGTTTCGCTACCGTGAAAGTGCTACAAAGATAAAGATTTGGTTTCAAAAGGAAAT (double strand) [PompF (F2 and F3 OmpR sites)]", "values": [
      {"measurement": "binding", "setting": "[1]", "value": "binds"},
      {"measurement": "binding", "setting": "[2]", "value": "binds"},
      {"measurement": "binding", "setting": "[3]", "value": "binds"},
      {"measurement": "binding", "setting": "[4]", "value": "binds"},
      {"measurement": "binding", "setting": "[5]", "value": "binds more weakly"}
    ]}
  ]
}
